The values that follow come from the nanobody polyreactivity screen of Harvey et al. (2022).

The nature of this data set: yeast display, Sf9 membrane polyspecificity reagent, FACS + sequencing; frameworks hold sequencing errors. Put shortly: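 Polyreactivity labels are assigned by the sorting gate from which each nanobody was recovered. The gates were low and high (top ~1%), set on anti-HA fluorescence for expression and streptavidin fluorescence for reagent binding. Before sorting, galactose-induced (36–48 hours) yeast display cells were stained for 1 hour at 4 °C with 10% biotinylated, detergent-solubilized Sf9 membrane reagent.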
Consider “QVQLVESGGGLDQAGGSLRLSCAASGRTFARYDMGWYRQATGKERELVAGINGDGGSTNYADSVKGRFTISRDNSKNTVYLQMNSLKPEDTAVYYCNVDQEDRKLHVSIKQLSDHWGQGTQVTVSS”, for which the “polyreactivity (PSR sort gate)” value is reported as “low polyreactivity”.
The result for “QVQLVESGGGLVQAGGSLRLSCAASGRTFRAYAMGWYRQAPGKERELVASISRGGSTKYADSVKGRFTISRDNAKNTVYLQMNSVKPEDTAVYYCAADRLRDGVDYWGQGTQVTVSS” reads “low polyreactivity”; that for “QVQLVESGGGLVQAGGSLRLSCAASGRIFRTYAMGWYRQAPGKERELVAAIRSGGSTKYADSVKGRFTISRDNAKNTVYLQMNSLKPEDTAVYYCAAAVLGRYSAGDGYWGQGTQVTVSS”, “low polyreactivity”; that for “QVQLVESGGGLVQAGGSLRLSCAASGNIFDRYAMGWYRQAPGKERELVAGITWSGGSTYYADSVKGRFTISRDNAKNTVYFQMTSLKPEDTAVYYCGKANYYWGQGTQVTVSS”, “low polyreactivity”.
The result for “QVQLVESGGGLVQAGGSLRLSCAASGSTFGRYAMGWYRQAPGKERELVAAINSRGGRKYYADSVKGRFTISRDNAKNTVYLQMNSLIPEDTAVYYCAAPTGPNGYYSDRGDSWGQGTQLTVSS” reads “low polyreactivity”; that for “QVQLKESVGGLVQAGGILRLSCAASGNIFPTDRMAWYRQAPGTELEFVATISHGGSTNYADSVKGRFTISRDNSKNTLYLQMNSLKPEDTAVYYWWGWSLGRWRHYYWGQGTQVTVSS”, “low polyreactivity”; that for “QVQLVESGGGLVQAGGSLRLSCAASGRTFGRYTMGWYIQAPGKERELGASISNTARTNYADSVKGRFTISRDNAKNTVYLQMNSLKPEDTAVYYCAAGFVRYRGTRDYWGQGTQVTVSS”, “low polyreactivity”.
The result for “QVQLLESGGGLVQAGGSLGCAASGNISTRSEMGWYRQAPGKEREFVATINSGGITNYADSVKGRFTISRDNENNTVYLGMNSLKPEDTAVYYRAVYVYFSDPYDYWGQGTQVTVSS” reads “low polyreactivity”; that for “QVQLVETGGGLVQAGGSLRLSCAASGRIFRGNTMGWYRQAPGKERELVAAITIRGRTYYADSVKGRFTISRDNAKNTVYLQMNSLKPEDTAVYYCAVASAGDNDYGGQGTQVTVSS”, “low polyreactivity”.
As to “QVQLVESGGGLVQAGGSLRLSCAASGSTFYKYAMGWYRQAPGKERELVARISRGGGSTYYADSVKGRFTISRDNAKNTVYLQMNSLKPEDTAVYYCAAGVRGQNDGYYWGQGTEVTVSS”, the “polyreactivity (PSR sort gate)” value was “high polyreactivity”.
For “QVHLVESGGGLVQAGGSLRLSCAASGRIFRFYAMGWYRQAPGKERELVADISRRGGSTYYADSVKGRFTISRDNAKNTVYLQMNSLKPEDTAVYYCNARWYRTGSTYHEDYWGQGTQVTVSS”, the “polyreactivity (PSR sort gate)” value is listed as “high polyreactivity”.
The entry for “QVQLVESGGGLVQAGGSLRLICAASGFTFAYYAMGWYRQATGKERELVAAISSGGGTYYADSVKGRFTISRDNAKNTVYLQMNSLKPEDTAVYYCNARYYFVFGRYNYWGQGTQVTVSS” is “high polyreactivity”; for “QVQLVESGGGLVQAGGSLRLSCAASGFIFQPYSLGWYRQAPGKERELVAAITSRGGRTYYADSVKGRFTISRDNAKNTVYLQMNSLKPEDTAVYYCNADIYASEYYYWGQGTQVTVSS” it is “low polyreactivity”; for “QVQLVESGGGLVQAGGSLRLSCAASGGIFFLYAMGWYRQAPGKERELVAAIRQDGGSTYYADSVKGRFTISRDNAKNTVYLQMNSLKPEDTAVYYCNAGYVKTGLEYYYWGQGTQVTVSS” it is “low polyreactivity”.
The result for “QVQLVESGGGLVQAGGSLRLSCAASGSTFYSNVMGWYRQAPGKERELLAAISQSGGRTFYADSVKGRFTISRDNAKITVYLQMNSLKPEDSAVYYSNASSGNRYGPRYDYWGQGTQVTVSS” reads “high polyreactivity”.
As to “QVQLVESGGGLVKAGGSLRLSCAASGRTFRYYDMGWYRQAPGKESELVAAIRTRGASTYYADSVKGRFTISRDNAKNTVYLQMNSLNPEDTAVYYCAKRAHFSSARHVYYIYDYWGQGTQVTVSS”, the “polyreactivity (PSR sort gate)” value is listed as “low polyreactivity”.
Consider “QVQIVESGGGLVQAGGSLRLSCAASGRTLALYTMGWYRQAPGKERELVAAINWSGTSTYYADSVKGRNTISRDNAKNTVYLQINILKPEDTAVYYCNADGSAYIEDGYDYWGQGTQVTVSS”, for which the “polyreactivity (PSR sort gate)” value is “low polyreactivity”.
The entry for “QVQLVESGGGLVQAGGSLRLSCAASGSTFAPYVMGCYRQAPGKQRELVAAIRFNGGRTHYADSVKGRFTISRDNAKNTVYLQMNSLKPEDTAVYYCAAEQWRRRNYWGQGTQVTVSS” is “high polyreactivity”; for “QVQLVESGGGLVQAGGRLRLSCAASGNTLRYYAMGWYRQAPGKERELVAAISESGGRTYYADSVKGRFTISRDNAKNTVYLQMNSLKPEDTAVYYCAASRWGGTWWYGYNYWGQGTQVTVSS” it is “high polyreactivity”; for “QVQLVESGGGLVQEGGSLRLSCAASGSIFSTYVMGWYRQAPGKERELVAAISRRGGSTYYADSVKGRFTISRDNAKNTVYLQMNSLKPEDTAVYYCAADGTVGRRDYWGQGTQVTVSS” it is “high polyreactivity”.
Regarding “QVQLVESGGGLVQAGGSLRLSCAASGGTFPYYAMGWYRQAPGKERELVAAITWDGGSTYYADSVKGRFTISRDNAKNTVYLQMNSLKPDATAVYYCNVRYYRYISRYDYWVQGTQVTVSS”, the “polyreactivity (PSR sort gate)” value is given as “high polyreactivity”.
The result for “QVQLVESGGGLVQAGGSLRLSCAASGRIFGQYAMGWYRQAPGKERELVAAITYSTGSTSYADSVKGRFTISRDNAKNTVYLQMNSLKPEDTAVYYCATRKPSVRGVIPTRNSYYYWGQGTQVTVSS” reads “high polyreactivity”; that for “QVQLVESGGGLVQAGGSLRLSCAASGFIFSRYAMGWYRQAPGKERELVAAINLSGTSTYYADSVKGRFTISRDNAKNTVYLQMNSLKPEDTAVYYCAATSSYIYPYGYWGQGTQVTVSS”, “high polyreactivity”.
The entry for “QVQLVESGGGLVQAGGSLRLSCAASGSTFGVYAMGWYRQAPGKERELVAAISYTGGSTYYADSVKGRFTISRDNAKNTVYLQMNSLKPEDTAVYYCATRSRDQYSVSYRLDYWGQGTQVTVSS” is “low polyreactivity”.
“QVQRVESGGGLVQAGGSLRLSCAASGSILFHYAMGWYRQAPGKEREMVAAISRRGGSTYYADSVKGRFSISRDNAKNTVYLQMNSLKPEDTAVYYCAKYPSAYVDSDVTYDMDYWGQGTQVTVSS”: the “polyreactivity (PSR sort gate)” value is “low polyreactivity”.
Take “QVQLVESGGGLVQAGGSLRLSCAASGSTFWRNALGWYRQAPGKERELVAAITDSGDSTYYADSVKGRFTISRDTAKNTVYLQMHSLKPEDTAVYYCAVDKLSLYGWDEYWGQGTQVTVSS”: the “polyreactivity (PSR sort gate)” value was “low polyreactivity”.
The result for “QVQLVESGGGLVQAGGSLRLSCADSGRTNPHYAMGWYRQAPGKESEFVAAISSRGGSTYDADSVKGRFTISRDNAKNTVYVQMNSLKPEDTAVYYCAAQYDGLPRVSYGLGEFGYWGQGSQVTVSS” reads “low polyreactivity”; that for “QVQLVESGGGLVQAGGSLRLSCAASGIIFGKNAMGWYRQAPGKERELVAAISSSGGSTYYADSVKGRFTISRDNAKNTVYLQMNSLKPEDTAVYYCATERGSRRSGSRMDYWGQGTQVTVSS”, “high polyreactivity”; that for “QVQLVESGGGLVQSGGSLRLSCAASGRTFRYYAMGWYRQAPGKERELVAAISWNGANTYYADSVKGRFTISRDNAKNTVYLQMNSLKPEDTAVYYCAATYYRWKGYDYWGQGTQVNVSS”, “high polyreactivity”.
The entry for “QDQLVESGGGLVQAGGSLRLSCAASGSTLNGNAMGWYRQAPGKERELVAAITTSGGSTYYADSVKGRFTISRDNAKNTVYLQMNSLKPEDTAVYYCNKLIGRRYGWANGYDYWGQGTQVTVSS” is “low polyreactivity”; for “QVQLVESGGGLVQAGGSLRLSCAASGSTFVYNAMGWYRPAPGKERELVAAISARTGRTYYADSVKGRFTISRDNAKNTVYLQMNSLKPEDTAVYYCAAGLIVGRFLRYDYWGQGTQVTVSS” it is “high polyreactivity”.
In the case of “QVQLVESGRGLVQAGGSLRLSCAASGRTFDFNAMGWYRQAPGKERELVAAISSDSDTYYADSVKGRFTISRDNAKNTVFLQMNSLKPEDTAVYYCAAEHQYPYGWYYYWGQGTQVTVSS”, the “polyreactivity (PSR sort gate)” value was “high polyreactivity”.
The entry for “QVQLVESGGGLVQAGGSLRLSCAASGLIFTNNAMGWYRQAPGKERELVAGINSGGRTNYADSVKGRFTISRDNAKNTVYLQKNSLKPEDTAVYYCAARWWVKSRPNRYNYWGQGTQVTVSS” is “high polyreactivity”.
The entry for “QVQLVESGGGLVQAGGSLRLSCAASGRTFLRYAMGWYRQAPGKERELVAAISVSGGNTYYADSVKGRFTISRDNAKNTVYLQMKSLKPEDTAVYYCNKARLAAVFSYPYGYWGQGTQVTVSS” is “low polyreactivity”.
Consider “QVQLQESGGGLVQAGGSLRLSCAASGTISPLPAMGWYRQAPGKEREFVAGIDTGAITNYADSVKGRFTISRDNAKNTVYLQMNSLIPEDTAVYYCAVFPAAYDYYERYYTYWGQGTQVTVSS”, for which the “polyreactivity (PSR sort gate)” value is listed as “low polyreactivity”.
The entry for “QVQLVESGGGLVQAGGSLRLSCAASGRTFVYYAMGWYRQAPGKERELVATISTTGGRTYYADSVKGRFTISRDNAKNTVYLQMNSLKPEDTAVYYCAADLYGAYGYWGQGTQVTVSS” is “low polyreactivity”.
The entry for “QVQLVESGGGLVQAGGSLRLTCAASGSIFVNNAMGWYRQAPGKEMELVAAIRRSGGNTYYADSVKGRFTISRDNAKNTVYLQMNSLIPEDTAVYYCNVVRRADSIRAKSRDYWGQGTQVTVSS” is “high polyreactivity”.
For the sequence “QVQLVESGGGLVQEGGSLRLICAASGSTFWANAMGWYRQEPGKERELVAAISVRGGNTYYADSVKGRFTISRDNAKNTVYLQMNSLKAEVTAVYYCAARPISWTSYYDYWGQGTQVTVSS”, the “polyreactivity (PSR sort gate)” value was “high polyreactivity”.
The result for “QVQLVESGGGLVQAGGSIRLSCAASGYILGRYAMGWYRQAPGKERELVAAITSGGSTYYADSVKGRFTISRDNAKNSVSLQMNSLKPEDTAVYYCAAYTRYWSYGYWGQGTQVTVSS” reads “high polyreactivity”.
As to “QVQLVESGGGLVQAGGSLRLSCAASGRTFKSNAMGWYRQAPGKERELVATINYSATSTYYADSVKGSFTISRDNAKNTVYLQMNSLKPEDTAVYYCNVACGYSYRGLDYWGQVTQVTVSS”, the “polyreactivity (PSR sort gate)” value was “high polyreactivity”.
As to “QVQLVESGGGLVQAGGTLRLSCAASGIIFNYYAMGWYRHAPGKERELVAAITRGGRTNYADSVKGRFTISRDNAKNTVYLQMNSLKPEDTAVYYCNAPAFYKYKSFYAHSGYDYWGQGTQVTVSS”, the “polyreactivity (PSR sort gate)” value is reported as “high polyreactivity”.
